In paper doi:10.1101/318345, “Three enzymes and one substrate; regulation of flux through the glyoxylate shunt in the opportunistic pathogen, Pseudomonas aeruginosa” (bioRxiv, 2018):

Target: the molecule itself
Experiment: SEC-MALS; TSK-Gel G3000 SWXL column, 150 mM NaCl, 20 mM Tris-HCl (pH 8.0), 0.5 mL/min, Mini-DAWN light scattering detector

Protein	stoichiometry N
Pseudomonas aeruginosa isocitrate lyase (ICL, PA2634) (enzyme, Pseudomonas aeruginosa strain PAO1, UniProt Q9I0K4 1-531, looked up, isocitrate lyase (ICL), ORF PA2634 of Pseudomonas aeruginosa strain PAO1, 531 amino acids; The ORF was cloned into a pMAL-c2X derivative with a hexa-histidine tag on the N-terminus of MBP; The His6-MBP tag was cut off with Factor Xa; Crystallised with Ca2+ and glyoxylate; also called P. aeruginosa ICL; source: E. coli DH5α, purified (amylose resin, Factor Xa cleavage, Ni-NTA flow through); not …) MSAYQNEIKAVAALKEKNGSSWSAINPEYAARMRIQNRFKTGLDIAKYTAAIMRKDMAEYDADSSVYTQSLGCWHGFIGQQKLISIKKHLKTTNKRYLYLSGWMVAALRSDFGPLPDQSMHEKTAVSGLIEELYTFLRQADARELDLLFTGLDAARAAGDKAKEAELLAQIDNFETHVVPIIADIDAGFGNAEATYLLAKKMIEAGACCIQIENQVSDEKQCGHQDGKVTVPHIDFLAKINAVRYAFLELGVDDGVIVARTDSLGAGLTKQIAVTNEPGDLGDLYNSFLDCEEISESELGNGDVVIKREGKLLRPKRLASNLFQFRKGTGEDRCVLDCITSLQNGADLLWIETEKPHVGQIKAMVDRIREVIPNAKLVYNNSPSFNWTLNFRQQVFDAFVAEGKDVSAYDRNKLMSVEYDDTELAKVADEKIRTFQRDGSAHAGIFHHLITLPTYHTAALSTDNLAKGYFADEGMLAYVKGVQRQELRQGIACVKHQNMAGSDIGDNHKEYFAGEAALKASGKDNTMNQFH	4
Pseudomonas aeruginosa isocitrate dehydrogenase ICD (PA2623) (enzyme, Pseudomonas aeruginosa strain PAO1, UniProt Q02NB5 1-418, looked up, isocitrate dehydrogenase ICD, ORF PA2623 of Pseudomonas aeruginosa strain PAO1, calculated molecular mass 45 kDa; The ORF was cloned into a pMAL-c2X derivative with a hexa-histidine tag on the N-terminus of MBP; The His6-MBP tag was cut off with Factor Xa; also called P. aeruginosa ICD; source: E. coli DH5α, purified (amylose resin, Factor Xa cleavage, Ni-NTA flow through); not shown: His6, …) MGYQKIQVPATGDKITVNADMSLSVPKNPIIPFIEGDGIGVDISPVMIKVVDAAVEKAYKGERKIAWMEVYAGEKATQVYDQDTWLPQETLDAVRDYVVSIKGPLTTPVGGGIRSLNVALRQQLDLYVCQRPVRWFEGVPSPVKKPGDVDMVIFRENSEDIYAGVEWKAGSPEAEKVIKFLTEEMGVKKIRFTENCGIGIKPVSQEGTKRLVRKALQYAVDNDRSSVTLVHKGNIMKFTEGAFKDWGYEVARDEFGAELLDGGPWMQFKNPKTGKNVVVKDVIADAMLQQILLRPAEYDVIATLNLNGDYLSDALAAEVGGIGIAPGANLSDSVAMFEATHGTAPKYAGQDKVNPGSLILSAEMMLRHMGWTEAADLIIKGTNGAIAAKTVTYDFERLMDGATLLSCSEFGDAMIAKM	2
